Data as given in US9023353B2, “Anti-(+)—methamphetamine monoclonal antibodies” (Board of Trustees University of Arkansas, priority 2013, dated 2015).
Entries after “also recorded” stand apart in the source; their conditions may differ.

Experiments:
[1] = tested on: ch-Antibody 51; test: ligand cross-reactivity testing: inhibition of [3H]-METH binding to antibody
Excerpt: Ch-Antibody 51 was designed to maintain the variable framework regions of the heavy and light chains of the mouse antibody including all three CDRs of both the heavy and the light chains, but includes a human IgG2 Fc region. These studies were designed to examine the potential for ch-Antibody 51 to bind to structurally-related stimulants, neurotransmitters, selected medications, and other drugs of abuse (Table 4). The assay used a modified radioimmunoassay (RIA) in a competitive binding format with [^3H]-METH (similar to RIA in Peterson et al., J Pharmacol Exp Ther (2008) 325:124-133) The assay is started by incubating radiolabeled METH ([^3H]-METH) with unlabeled potential ligand (concentrations typically range from 0.03-5000 nM), ch-Antibody 51, and Protein G conjugated to magnetic beads. After reaching equilibrium, the beads with bound antibody and ligand are separated from the solution with a magnet and the supernatant aspirated. The amount of mAb-bound [^3H]-METH is quantified by liquid scintillation counting. For each of the related stimulants, a complete inhibition curve was constructed to determine the KD or KI value (see FIG. 7). For the remaining test ligands, the same method was used, but only 2 concentrations of ligand were tested rather than the expanded range. Additionally, highly concentrated pools of compounds were used to attempt inhibition of [^3H]-METH binding to ch-Antibody 51. If METH binding was inhibited 50% or more by any pool of ligands, the assay was repeated with the compounds separately to identify the individual cross reacting ligands.
Average disintegrations per minute (DPM) from the scintillation counter were plotted versus the concentration of unlabeled ligand using Origin software (OriginLab). A 4-parameter logistic function was fit to the data to obtain values describing the top and bottom plateaus, slope and mid-point. The mid-point of the curve identifies the concentration of unlabeled ligand required to inhibit 50% of the binding of [^3H]-METH. For homologous assays in which unlabeled METH competes with [^3H]-METH for binding to ch-Antibody 51, the dissociation constant (KD) is found by subtracting the concentration of [^3H]-METH from the mid-point. For non-homologous assays in which unlabeled ligands other than METH compete for binding with [^3H]-METH, the subtraction yields a KI value.
Each pool was analyzed in triplicate, twice at each concentration.
Three (3) of the pools inhibited binding of radiolabeled METH by more than 50%, therefore these individual ligands were retested at 1 μM in triplicate in 2 separate assays.

[2] = long-term in vivo METH binding function during continuous sc (+)-METH infusion; set-up: species or system Sprague-Dawley rats; details: rats, single iv mAb dose 180 mg/kg, sc (+)-METH infusion 5.6 mg/kg/day, serum METH to day 13
Protocol: FIG. 1 depicts two graphs showing changes in METH in vivo binding by anti-METH monoclonal antibodies (mAbs) in the presence of a 13 day continuous METH infusion. Once METH achieved steady-state levels (pre-mAb) in each of the Sprague-Dawley rats (n=2 per group), a single dose of vehicle treatment (METH only) or of treatment with three different anti-METH mAbs were given as an iv bolus (180 mg/kg, equimolar in binding sites to the METH body burden). Serum samples were collected before the mAb treatment and at various time points after mAb treatment for determination of METH concentrations over time (A). Values represent the mean METH concentration of each group for each time point. METH AUC data is shown in (B). […]
About 16 h after pumps implantation, the rats were anesthetized with halothane. […] METH concentrations in serum samples were then determined by liquid chromatograph/mass spectrometry/mass spectrometry (LC/MS/MS) analysis by a previously reported method from our laboratory (Laurenzana E M et al. Drug Metab Dispos (1995) 23: 271-278).
The route of (+)-METH dosing was a subcutaneous (sc) infusion. […] Body weights, eating behavior, and general health observations were recorded for each animal. (+)-METH concentrations were determined by LC/MS/MS, similar to the method described by described by (Laurenzana E M et al. Drug Metab Dispos (1995) 23: 271-278). […]

[3] = terminal elimination half-life in rats; type: in vivo; details: unpublished finding
[4] = (±)-METH priming-induced reinstatement (relapse) of lever pressing; type: in vivo, male Long Evans rat; details: for response rate (lever presses on reinforced lever): Day 1, 1 mg/kg ip (±)-METH prime
Protocol: The male Long Evans rat was chosen as the animal model for this study because it is a preferred rodent species for preclinical toxicity testing of drug self-administration paradigms. Commercially obtained test chambers equipped with two retractable levers, a white cue light positioned above each lever, a 5-w house light, and a Sonalert® tone generator (MED Associates, Inc., St. Albans, Vt.) emitting a 2900 Hz, 60 dB tone were used. Infusions were delivered in a 0.2 ml volume by a 6-s activation of infusion pumps (Model PHS-100; MED Associates, Inc., St. Albans, Vt.). Recordings of lever presses and activations of lights, pumps, and Sonalerts® were accomplished by a microcomputer, interface and associated software (MED-PC® IV, MED Associates, Inc., St. Albans, Vt.).
(±)-METH self-administration (SA) training sessions were conducted five days per week (M-F) for 2 hrs daily. At the start of (±)-METH SA sessions, the levers were extended and the house light was illuminated. […] At the start of an infusion the house light was extinguished, the Sonalert® was sounded, and the cue lights above each lever flashed at 3 Hz. The Sonalert® and cue lights remained activated during the 6 s infusion. Twenty seconds following the onset of the infusion the house light was re-illuminated, and the opportunity to self-administer (±)-METH was again made available (i.e., each (±)-METH infusion initiated a 20 s period during which lever presses were recorded but were without scheduled consequences and further infusions could not be obtained). Reinforced-lever (right-side) lever presses during the infusions as well as all non-reinforced (left-side) lever presses were recorded, but the latter were without scheduled consequences.
SA training continued until all three criteria had been met: 1) at least 12 self-administration sessions occurred; 2) at least 15 (±)-METH infusions occurred during each of the last four sessions; and, 3) at least 125 lifetime (±)-METH infusions were obtained. Subsequently, twelve 2-h daily (Mon-Sun) extinction sessions were conducted. […] Other conditions during extinction were identical to those during SA. That is, during extinction sessions, both levers were extended and the house light was activated. Before the last four extinction sessions, an injection of saline (the vehicle for (±)-METH prime) was administered ip 30 min pre-session to acclimate the rats to the injection procedure.
Reinstatement testing followed extinction training. A rat was considered eligible for subsequent reinstatement testing if during the last three extinction sessions the mean number of reinforced-lever lever presses was less than the mean number occurring during the first three extinction sessions. […] One rat in the vehicle group was inadvertently retained, even though its response mean (12.3 responses) during the last three extinction sessions exceeded its first three extinction sessions (11.6 responses). Reinstatement testing occurred across 13 daily (Mon-Sun) 2-h experimental sessions. Conditions during reinstatement testing were identical to those during extinction training with two exceptions.
The ip route of (±)-METH exposure during relapse testing was selected mainly for convenience of dosing and to avoid additional use of the catheters. […] The dose volume for each animal was based on the most recent body weight measurement.
Body weights, eating behavior, and general health observations were recorded for each animal. Analyses of an animal's lever pressing responses to vehicle and (±)-METH-induced relapse to active lever responding were used as a measure of the animal's response to an ip injection of vehicle (control) or (±)-METH (1.0 mg/kg).
Initially, the number of right-side lever presses occurring during test days between test groups was compared using a two-factor, repeated measures ANOVA (Prism 5 for Macintosh, GraphPad Software, Inc., San Diego, Calif.). […]

[5] = individual ligands at 1 μM, triplicate in 2 assays, average

For `CN[C@@H](C)[C@H](O)c1ccccc1` (racemic) [(±)-Ephethine], the “Percent inhibition of [3H]-METH binding” value [1, 5] was 26.1%.

With `CC(N)Cc1ccc2c(c1)OCO2` (single isomer, unassigned; (+)) [(+)-MDA, (+) 3,4-methylenedioxyamphetamine] the “Percent inhibition of [3H]-METH binding” value [1, 5] was 40.7%.

With `CNC(C)Cc1ccc2c(c1)OCO2` (single isomer, unassigned; (-)) [(−)-MDMA] the “Percent inhibition of [3H]-METH binding” value [1, 5] was 78.3% and the Ki ([1]; inferred from more than 50% inhibition at 1 μM) was < 1000 nM.

With `NCCc1ccccc1` [2-Phenylethylamine] the “Percent inhibition of [3H]-METH binding” value [1, 5] was 20.0%.

With `CNC[C@H](O)c1cccc(O)c1` [(−)-Phenylephrine] the “Percent inhibition of [3H]-METH binding” value [1, 5] was 38.2%.

For `NCCc1ccc(O)cc1` [Tyramine], the “Percent inhibition of [3H]-METH binding” value ([1]; ligand pool, each inhibitor in pool 1 μM) was 2.1% and the “Percent inhibition of [3H]-METH binding” value ([1]; ligand pool, each inhibitor in pool 10 μM) was 7.5%.

With (+)-Norpseudoephedrine the “Percent inhibition of [3H]-METH binding” value [1, 5] was 36.3%.

In the case of (+)-Pseudoephedrine, the “Percent inhibition of [3H]-METH binding” value [1, 5] is reported as 5.1%.

B1: Antibody 51: high affinity murine anti-METH monoclonal antibody; light chain SEQ ID NO: 3, heavy chain SEQ ID NO: 4 (antibody)
heavy: EIQLQQSGPELGKPGASVKVSCRASGFSFADYYIYWVKQSHGKSLELIGYIDPFNGGDTYNQIFKGKATLTVDKSSSTAFMYLNSLTSEDSAVYYCAAFRNPSFDFWGQGTTLTVSSAKTTPPSVYPLAPGSAAQTNSMVTLGCLVKGYFPEPVTVTWNSGSLSSGVHTFPAVLQSDLYTLSSSVTVPSSTWPSETVTCNVAHPASSTKVDKKIVPRDCGCKPCICTVPEVSSVFIFPPKPKDVLTITLTPKVTCVVVDISKDDPEVQFSWFVDDVEVHTAQTQPREEQFNSTFRSVSELPIMHQDWLNGKEFKCRVNSAAFPAPIEKTISKTKGRPKAPQVYTIPPPKEQMAKDKVSLTCMITDFFPEDITVEWQWNGQPAENYKNTQPIMDTDGSYFVYSKLNVQKSNWEAGNTFTCSVLHEGLHNHHTEKSLSHSPGK
light: QIVLIQSPPIMSASPGEKVTLTCSASSSVSSRYLYWYQQKPGSSPKLWIYGTSNLASGVPARFSGSGSGTSFSLTISSMEAEDAASYFCHQWSSFPFTFGSGTKLEIKRADAAPTVSIFPPSSEQLTSGGASVVCFLNNFYPKDINVKWKIDGSERQNGVLNSWTDQDSKDSTYSMSSTLTLTKDEYERHNSYTCEATHKTSTSPIVKSFNRNEC
modifications: SYTHENSIZED
With B1 the “long-term in vivo METH binding function” value [2] was “showed long-term functional properties”, the terminal elimination half-life [3] was ~140 h and the “responding with subsequent treatments every three days” value ([4]; 30 mg/kg iv) was “maintained responding at levels always higher than the control”. The “increase over control values” ([4]; 30 mg/kg iv, Day 1) was 143%, the “response rate (lever presses on reinforced lever)” value ([4]; 30 mg/kg iv) was 70 presses and the “responding with subsequent treatments every three days” value ([4]; 56 mg/kg iv) was “progressively lower responses from the Day 1 level of responding”. The “increase over control values” ([4]; 56 mg/kg iv, Day 1) was 182%, the “response rate (lever presses on reinforced lever)” value ([4]; 56 mg/kg iv) was 91 presses and the lever presses ([4]; 100 mg/kg iv, Day 1) was ~50 lever presses. For the same molecule, the “responding compared to vehicle” value ([4]; 100 mg/kg iv, Day 1) was “at the same level as vehicle treatment responding”, the “apparent METH dose on ascending side of simulated dose-response curve” value ([4]; 100 mg/kg iv, Day 1, pharmacodynamic simulation, 50 responses) was ~0.025 mg/kg/inj and the “responding compared to control” value ([4]; 100 mg/kg iv, Day 7, after third dose) was “significantly reduced; also recorded: near extinction”. The responding ([4]; 100 mg/kg iv, Day 10, administration stopped) was “remained blunted”, the responding ([4]; 100 mg/kg iv, Day 13, administration stopped) was “return to near control levels of responding” and the “responding compared to control” value ([4]; 100 mg/kg iv, after the second administration) was “reduced responding below control levels”.
